Legend:
human CD19 (human) [1] = biological target: human CD19 (human) (UniProt P15391); experiment: dSTORM, isotype control on NALM-6 cells (background), antibody at 5 × 10^-5 µg/ml
human CD19 (human) [2] = biological target: human CD19 (human) (UniProt P15391); experiment: dSTORM, isotype control on NALM-6 cells (background), antibody at 5 × 10^-4 µg/ml
human CD19 (human) [3] = biological target: human CD19 (human) (UniProt P15391); experiment: dSTORM, isotype control on NALM-6 cells (background), antibody at 5 × 10^-3 µg/ml
human CD19 (human) [4] = biological target: human CD19 (human) (UniProt P15391); experiment: dSTORM, isotype control on NALM-6 cells (background), antibody at 0.05 µg/ml
human CD19 (human) [5] = biological target: human CD19 (human) (UniProt P15391); experiment: dSTORM, isotype control on NALM-6 cells (background), antibody at 10 µg/ml
human CD19 (human) [6] = biological target: human CD19 (human) (UniProt P15391); experiment: dSTORM, isotype control on NALM-6 cells (background), antibody at 5 µg/ml
human CD19 (human) [7] = biological target: human CD19 (human) (UniProt P15391); experiment: dSTORM, isotype control on NALM-6 cells (background), antibody at 0.5 µg/ml
human CD19 (human) [8] = biological target: human CD19 (human) (UniProt P15391); experiment: dSTORM, isotype control on NALM-6 cells (background), antibody at 2.5 µg/ml
human CD19 (human) [9] = biological target: human CD19 (human) (UniProt P15391); experiment: dSTORM, antibody titration on NALM-6 cells, antibody at 5 × 10^-3 µg/ml
human CD19 (human) [10] = biological target: human CD19 (human) (UniProt P15391); experiment: dSTORM, antibody titration on NALM-6 cells, antibody at 5 µg/ml
human CD19 (human) [11] = biological target: human CD19 (human) (UniProt P15391); experiment: dSTORM, antibody titration on NALM-6 cells, antibody at 0.05 µg/ml
human CD19 (human) [12] = biological target: human CD19 (human) (UniProt P15391); experiment: dSTORM, antibody titration on NALM-6 cells, antibody at 2.5 µg/ml
human CD19 (human) [13] = biological target: human CD19 (human) (UniProt P15391); experiment: dSTORM, antibody titration on NALM-6 cells, antibody at 10 µg/ml
human CD19 (human) [14] = biological target: human CD19 (human) (UniProt P15391); experiment: dSTORM, antibody titration on NALM-6 cells, antibody at 5 × 10^-4 µg/ml
human CD19 (human) [15] = biological target: human CD19 (human) (UniProt P15391); experiment: dSTORM, antibody titration on NALM-6 cells, antibody at 0.5 µg/ml
human CD19 (human) [16] = biological target: human CD19 (human) (UniProt P15391); experiment: dSTORM on NALM-6 cells, antibody at 5×10^-5 µg/ml
human CD19 (human) [17] = biological target: human CD19 (human) (UniProt P15391); experiment: dSTORM, antibody titration on NALM-6 cells, antibody at 5 × 10^-5 µg/ml
human CD19 (human) [18] = biological target: human CD19 (human) (UniProt P15391); experiment: dSTORM on NALM-6 cells, antibody at c≥2.5 µg/ml

Chain of UniProt P15391 (P15391 20-556): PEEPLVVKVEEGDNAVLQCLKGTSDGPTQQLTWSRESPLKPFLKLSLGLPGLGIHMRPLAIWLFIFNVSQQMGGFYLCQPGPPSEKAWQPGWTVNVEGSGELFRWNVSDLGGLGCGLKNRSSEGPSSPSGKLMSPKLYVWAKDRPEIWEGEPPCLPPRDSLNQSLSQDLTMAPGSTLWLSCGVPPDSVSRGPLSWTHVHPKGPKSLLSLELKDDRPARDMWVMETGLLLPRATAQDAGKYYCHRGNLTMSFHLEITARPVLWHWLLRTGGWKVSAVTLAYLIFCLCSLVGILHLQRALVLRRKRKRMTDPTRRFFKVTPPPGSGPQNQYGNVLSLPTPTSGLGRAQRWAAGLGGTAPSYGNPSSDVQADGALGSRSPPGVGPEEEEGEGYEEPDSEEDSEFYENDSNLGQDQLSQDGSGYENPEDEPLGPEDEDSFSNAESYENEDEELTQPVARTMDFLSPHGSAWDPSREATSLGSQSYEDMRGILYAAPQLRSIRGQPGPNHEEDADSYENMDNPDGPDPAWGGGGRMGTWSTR

| Molecules per cell (molecules per cell) (human CD19 (human) [1]) | Molecules per cell (molecules per cell) (human CD19 (human) [2]) | Molecules per cell (molecules per cell) (human CD19 (human) [3]) | Molecules per cell (molecules per cell) (human CD19 (human) [4]) | Molecules per cell (molecules per cell) (human CD19 (human) [5]) | Molecules per cell (molecules per cell) (human CD19 (human) [6]) | Molecules per cell (molecules per cell) (human CD19 (human) [7]) | Molecules per cell (molecules per cell) (human CD19 (human) [8]) | Molecules per cell (molecules per cell) (human CD19 (human) [9]) | Molecules per cell (molecules per cell) (human CD19 (human) [10]) | Molecules per cell (molecules per cell) (human CD19 (human) [11]) | Molecules per cell (molecules per cell) (human CD19 (human) [12]) | Molecules per cell (molecules per cell) (human CD19 (human) [13]) | Molecules per cell (molecules per cell) (human CD19 (human) [14]) | Molecules per cell (molecules per cell) (human CD19 (human) [15]) | CD19 molecules/µm^2 at the detection limit (CD19 molecules/µm^2) (human CD19 (human) [16]) | Molecules per cell (molecules per cell) (human CD19 (human) [17]) | CD19 molecules/µm^2 under saturating conditions (CD19 molecules/µm^2) (human CD19 (human) [18]) | Substance |
| --- | --- | --- | --- | --- | --- | --- | --- | --- | --- | --- | --- | --- | --- | --- | --- | --- | --- | --- |
| 0 | 0.8 | 1.3 | 7.1 | 72 | 85 | 44 | 50 |  |  |  |  |  |  |  |  |  |  | AF647 isotype control antibody (BioLegend) |
|  |  |  |  |  |  |  |  | 67 | 1860 | 182 | 1780 | 1880 | 12 | 710 | 0.006 | 3.1 | 3.4 | anti-CD19 antibody, clone HIB19, Alexa Fluor 647 conjugate (BioLegend) |
